One test concerns the target T1, GIP receptor.
T1 sequence (P48546 whole entry, species assumed, looked up): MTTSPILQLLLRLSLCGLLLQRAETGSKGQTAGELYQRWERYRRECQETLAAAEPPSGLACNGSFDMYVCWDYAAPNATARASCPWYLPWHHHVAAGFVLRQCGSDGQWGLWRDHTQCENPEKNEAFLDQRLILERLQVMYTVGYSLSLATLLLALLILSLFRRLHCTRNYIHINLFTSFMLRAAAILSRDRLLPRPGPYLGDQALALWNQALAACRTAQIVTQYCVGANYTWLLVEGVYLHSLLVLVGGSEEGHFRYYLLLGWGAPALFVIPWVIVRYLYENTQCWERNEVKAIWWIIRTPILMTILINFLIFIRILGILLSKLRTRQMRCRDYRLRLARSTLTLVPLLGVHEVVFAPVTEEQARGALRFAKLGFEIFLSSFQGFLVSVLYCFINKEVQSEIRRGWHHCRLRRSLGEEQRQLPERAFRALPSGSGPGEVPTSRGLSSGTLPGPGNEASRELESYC
Nature of the test: GIP receptor binding assay.

Another test concerns the target T2, GLP-1 receptor, P32301.
T2 chain: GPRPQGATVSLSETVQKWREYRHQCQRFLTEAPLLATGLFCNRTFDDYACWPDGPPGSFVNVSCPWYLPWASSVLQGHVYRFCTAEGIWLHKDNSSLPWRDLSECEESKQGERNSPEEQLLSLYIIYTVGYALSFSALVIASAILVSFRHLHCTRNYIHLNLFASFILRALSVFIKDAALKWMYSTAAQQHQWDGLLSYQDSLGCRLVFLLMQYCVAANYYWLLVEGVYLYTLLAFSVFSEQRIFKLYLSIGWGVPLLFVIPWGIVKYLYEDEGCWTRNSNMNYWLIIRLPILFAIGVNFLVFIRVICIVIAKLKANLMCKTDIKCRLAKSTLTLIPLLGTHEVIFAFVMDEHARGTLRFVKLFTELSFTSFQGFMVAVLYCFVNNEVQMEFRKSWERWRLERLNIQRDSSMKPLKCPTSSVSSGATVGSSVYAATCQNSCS
Briefly: GLP-1 receptor binding, displacement of [125I]GLP-1 on RINm5F cell membranes.

Square brackets hold non-standard residues; d marks the D form. Ends that are not written are not given here.

B1: 0601GIP4233, [dAla2] GIP-(1-30)-fGLP-1v2-(31-37) (peptide)
peptide: Y[dA]EGTFISDYSIAMDKIHQQDFVNWLLAQKPKKIRYS
Molecule B1 yielded a GIP RBA with GIP receptor of 0.1 nM.

B2: 0601GIP3794, (D-Ala2)GIP(1-30)-… amide form (peptide)
peptide: YAEGTFISDYSIAMDKIHQQDFVNWLLAQKPSSGAPPPS
modifications: not checked
B2 registered a GLP RBA with GLP-1 receptor, P32301 of 1000.

For the origin of these results see US20090036364A1.
